Assay results taken from publication PMC4070431.

What was measured:
[1] = target: non-selective somatostatin receptor (sst)
[2] = target: human natriuretic peptide receptor-A (NPR-A) (human) (UniProt P16066)
[3] = target: human natriuretic peptide receptor-B (NPR-B) (human) (UniProt P20594)
[4] = target: human natriuretic peptide receptor-A (NPR-A) (human) (UniProt P16066); assay: radioligand binding
[5] = target: human natriuretic peptide receptor-C (NPR-C) (human) (UniProt P17342); assay: radioligand binding
human natriuretic peptide receptor-C (NPR-C) (human), sequence (P17342 27-541): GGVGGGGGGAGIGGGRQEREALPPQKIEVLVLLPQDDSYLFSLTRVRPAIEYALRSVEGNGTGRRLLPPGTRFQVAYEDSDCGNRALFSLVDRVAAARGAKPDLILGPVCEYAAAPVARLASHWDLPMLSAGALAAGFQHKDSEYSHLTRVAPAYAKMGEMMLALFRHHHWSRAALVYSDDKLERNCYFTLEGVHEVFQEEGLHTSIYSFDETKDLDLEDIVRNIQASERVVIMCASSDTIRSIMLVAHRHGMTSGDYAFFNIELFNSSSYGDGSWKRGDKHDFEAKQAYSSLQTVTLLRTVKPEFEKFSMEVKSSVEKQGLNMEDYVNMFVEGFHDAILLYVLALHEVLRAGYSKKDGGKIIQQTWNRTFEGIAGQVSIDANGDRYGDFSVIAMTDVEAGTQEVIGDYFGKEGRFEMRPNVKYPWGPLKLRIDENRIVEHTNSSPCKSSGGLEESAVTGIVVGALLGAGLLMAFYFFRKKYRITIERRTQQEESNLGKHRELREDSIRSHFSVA

human natriuretic peptide receptor-A (NPR-A) (human), sequence (P16066 33-1061): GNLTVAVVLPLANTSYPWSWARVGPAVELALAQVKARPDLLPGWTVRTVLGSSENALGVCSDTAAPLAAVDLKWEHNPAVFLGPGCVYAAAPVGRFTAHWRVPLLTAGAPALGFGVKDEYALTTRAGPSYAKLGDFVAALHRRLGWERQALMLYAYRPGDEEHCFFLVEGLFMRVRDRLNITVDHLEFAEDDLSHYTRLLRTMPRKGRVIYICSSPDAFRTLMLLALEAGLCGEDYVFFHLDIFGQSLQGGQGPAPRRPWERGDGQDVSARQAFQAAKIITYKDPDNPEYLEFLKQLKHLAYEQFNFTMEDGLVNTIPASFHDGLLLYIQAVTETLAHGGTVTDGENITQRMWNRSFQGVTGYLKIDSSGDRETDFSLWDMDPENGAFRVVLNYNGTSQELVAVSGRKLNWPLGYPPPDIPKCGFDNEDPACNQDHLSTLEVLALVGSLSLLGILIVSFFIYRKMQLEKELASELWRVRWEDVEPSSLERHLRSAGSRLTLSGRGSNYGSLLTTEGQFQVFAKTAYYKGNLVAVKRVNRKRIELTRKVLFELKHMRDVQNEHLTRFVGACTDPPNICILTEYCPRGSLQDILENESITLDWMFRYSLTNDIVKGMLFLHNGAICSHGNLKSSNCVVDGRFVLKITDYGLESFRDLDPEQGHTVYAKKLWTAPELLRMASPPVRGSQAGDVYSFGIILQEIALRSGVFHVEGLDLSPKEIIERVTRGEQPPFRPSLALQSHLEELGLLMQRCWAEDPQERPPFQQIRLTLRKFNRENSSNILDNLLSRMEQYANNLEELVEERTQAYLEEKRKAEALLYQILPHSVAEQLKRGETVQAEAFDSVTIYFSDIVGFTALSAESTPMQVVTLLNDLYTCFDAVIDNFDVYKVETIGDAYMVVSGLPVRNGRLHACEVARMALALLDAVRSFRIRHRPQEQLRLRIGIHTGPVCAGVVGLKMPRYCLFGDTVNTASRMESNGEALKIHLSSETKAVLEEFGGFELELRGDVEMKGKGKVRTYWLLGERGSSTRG
human natriuretic peptide receptor-B (NPR-B) (human), sequence (P20594 23-1047): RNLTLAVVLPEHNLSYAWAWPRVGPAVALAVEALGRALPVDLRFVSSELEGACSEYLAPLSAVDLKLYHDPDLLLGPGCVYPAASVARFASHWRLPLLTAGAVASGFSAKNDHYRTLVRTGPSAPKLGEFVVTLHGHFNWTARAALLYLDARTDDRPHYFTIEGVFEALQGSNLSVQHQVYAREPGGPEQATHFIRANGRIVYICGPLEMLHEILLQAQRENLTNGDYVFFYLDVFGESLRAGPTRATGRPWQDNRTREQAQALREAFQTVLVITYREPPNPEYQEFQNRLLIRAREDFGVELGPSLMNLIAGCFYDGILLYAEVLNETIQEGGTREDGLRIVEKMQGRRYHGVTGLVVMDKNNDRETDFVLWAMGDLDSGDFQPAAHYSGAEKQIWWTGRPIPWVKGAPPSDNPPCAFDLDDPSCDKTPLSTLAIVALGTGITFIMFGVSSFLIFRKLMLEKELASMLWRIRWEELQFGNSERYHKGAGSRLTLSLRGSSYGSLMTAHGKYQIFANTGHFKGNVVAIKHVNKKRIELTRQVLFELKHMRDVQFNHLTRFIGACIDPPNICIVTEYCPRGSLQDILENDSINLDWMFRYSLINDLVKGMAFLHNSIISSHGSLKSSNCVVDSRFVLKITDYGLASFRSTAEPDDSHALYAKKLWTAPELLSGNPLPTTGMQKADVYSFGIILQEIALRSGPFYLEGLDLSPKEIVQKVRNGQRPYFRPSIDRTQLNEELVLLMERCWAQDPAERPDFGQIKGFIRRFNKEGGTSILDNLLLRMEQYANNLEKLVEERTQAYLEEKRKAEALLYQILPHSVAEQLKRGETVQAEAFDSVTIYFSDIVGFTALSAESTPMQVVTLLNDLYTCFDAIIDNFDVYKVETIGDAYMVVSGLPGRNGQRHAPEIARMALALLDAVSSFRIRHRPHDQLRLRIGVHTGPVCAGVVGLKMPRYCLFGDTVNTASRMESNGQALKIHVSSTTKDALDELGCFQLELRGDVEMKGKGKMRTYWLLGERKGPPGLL

Substance	Ki [1] [nM]	cGMP generation in HEK293 cells expressing the receptor, EC50 [2] [nM]	cGMP generation in HEK293 cells expressing the receptor, Emax [2] [% hANP]	cGMP generation in HEK293 cells expressing the receptor (up to 10 µM), Emax [3] [% hCNP]	Ki [4] [nM]	Ki [5] [nM]
PL-3994 (Hept-cyclo(Cys-His-Phe-D-Ala-Gly-Arg-D-Nle-Asp-Arg-Ile-Ser-Cys)-Tyr-[Arg mimetic]-NH2) (peptide)	4200					
human brain natriuretic peptide (hBNP) (ligand)		2	96	9	3	0.7
